# Laboratory results as given in the supplement of paper PMC11865577.
# Key:
# Test in all cases: pull-down binding Z-score (relative to library population); higher = stronger binding
# Conditions in all cases: RNA library: Library-2
# [1] = system: TO-3-N3 (biotin conjugate)
# How it was run: (§1)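 Heat-folded RNA library (1 μg, Cy5 or Cy3 end label, phosphate/NaCl/KCl buffer) was captured for 60 min at 25 °C on streptavidin beads displaying 100 pmol of biotin-conjugated small molecule, then washed three times. The bound fraction, eluted in hot SDS, was hybridised to a DNA barcode microarray at 55.5 °C for 20 h. Z-scores for binding were taken against the library mean and standard deviation after beads-only subtraction and trimmed averaging of replicate barcoded probes.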
# [2] = system: TO-3-N3-2 (biotin conjugate)
# How it was run: as §1
# TO-N3 (biotin conjugate) = system: TO-N3 (biotin conjugate)
# How it was run: as §1
# [3] = system: TO-N3-2 (biotin conjugate)
# How it was run: as §1
Sequence,pull-down binding Z-score [1],pull-down binding Z-score [2],pull-down binding Z-score (TO-N3 (biotin conjugate)),pull-down binding Z-score [3]
CAGACUUUGUGAAUGAGUUUUACGCAUAUUUGCGUAAACAUUUCUCAAUGAUGAUACUCUCUG,-0.682,-0.222,-0.747,-0.783
CAGAGACUUGAAGAUGUCUUUG [IAV_invivo_M1_M2_7_Motif_2+IAV_invivo_M1_M2_7_Motif_2],-0.637,-0.362,-0.897,-0.242
CAGAGUACUCAAUGGUCUUUG,-0.33,-0.543,-0.395,-0.606
CAGAGUCACAUGUUGACACUG,0.214,-0.263,-0.0159,-0.894
CAGAGUCGUAUUUGUCUUAUGGGCACAUGGCUUUG [SHAPE_invivo_SARS-CoV-2_Motif_350],0.361,-0.171,0.131,-0.215
CAGCAAGAACUG [DMSMaPseq_invitro_SARS-CoV-2_Motif_202],-0.324,-0.578,-0.633,-0.724
CAGGACACGAGUAACUCGUCUAUCUUCUG [SARS-CoV-2-Conserved-Structured-36_Interval-120-237_Motif_2],0.225,-0.0048,0.324,0.379
CAGGCAAGAAGGAUACUUACCUG [U1snRNP5ss-25],-0.164,-0.366,-0.353,-0.695
CAGGCAAUAACAGUUACACCGGAAGCCAAUAUGGAUCAAGAAUCCUUUGGUGGUGCAUCGUGUUGUCUG [SHAPE_invivo_SARS-CoV-2_Motif_250],0.944,0.619,1.2,0.779
CAGGCCACAAAUAGGCGUG,-0.638,-0.502,-0.509,0.278
CAGGCCAUCACAAAUGCCACAGCUUGAGUAAACUGUGCAGCCUG [3-way model-2_DENV2],-0.433,-0.224,-0.464,-0.0801
CAGGUACAGUAGAUACUUACCUG [U1snRNP5ss-19],-0.605,-0.722,-0.984,-1.09
CAGGUAUGAAUGAUACUUACCUG [U1snRNP5ss-11],1.06,0.369,0.898,0.225
CAGGUGACUUUGAUACUUACCUG [U1snRNP5ss-18],-0.734,-0.615,-0.974,-0.978
CAGGUUUGUGAGAUACUUACCUG [U1snRNP5ss-14],-0.473,-0.404,-0.661,-0.792
CAGUACAAUUCUGUGAUGCCAUGCGAAAUGCUGGUAUUGUUGGUGUACUG,-0.432,-0.441,-0.499,-0.171
CAGUUGAAACAUCAAAUUCGUUUGAUGUACUG,-0.685,-0.516,-1.04,-1.22
CAGUUUACUCACACCUUUUGCUCGUUGCUGCUG,-0.164,-0.285,-0.0216,0.0199
CAGUUUGGUCCAACUUAUUUGGAUGGAGCUG,-0.686,-0.514,-1,-0.976
CAUAAACGAACUUAUGGAUUUGUUUAUG,-0.474,-0.393,-0.904,-1.25
CAUAGAUUAUGACUGUG [SHAPE_invivo_SARS-CoV-2_Motif_206],-0.165,-0.373,-0.396,-0.826
CAUCAAAACCAAGCAAGAGGUCAUUUAUUGAAGAUCUACUUUUCAACAAAGUGACACUUGCAGAUG [DMSMaPseq_invitro_SARS-CoV-2_Motif_426],-0.806,-0.0955,-0.92,-0.851
CAUCAACCAUAUGUAGUUGAUG,-0.47,-0.283,-0.872,-1.15

Sequence,pull-down binding Z-score [1],pull-down binding Z-score [2],pull-down binding Z-score (TO-N3 (biotin conjugate)),pull-down binding Z-score [3]
CAUCAUAUGCAGCUUUUGCUACUGCUCAAGAAGCUUAUGAGCAGGCUGUUGCUAAUGGUG,-1.04,-0.315,-0.917,-0.238
CAUCGUUGAUAGUG [SHAPE_invitro_SARS-CoV-2_Motif_152],0.718,0.263,0.76,0.588
CAUGAAGUGUGAUCAUUGUGGUGAAACUUCAUG,-0.496,-0.154,-0.605,-0.279
CAUGAGCAGUGCUGACUCAACUCAGGCCUAAACUCAUG,-0.197,0.0138,0.27,0.83
CAUGCAAAUUACAUAUUUUGGAGGAAUACAAAUCCAAUUCAGUUGUCUUCCUAUUCUUUAUUUGACAUG,-0.857,-0.152,-1.08,-0.803
CAUGCUGAUUUUGACACAUGGUUUAGCCAGCGUG [DMSMaPseq_invitro_SARS-CoV-2_Motif_160],-0.604,-0.409,-0.64,-0.276
CAUGGAUUUGUCUUCUACAAUUUGCCUAUG,-0.852,-0.186,-0.967,-0.745
CAUGUCAUGUCUAAACAUACUGACUUUUCAAGUG [SHAPE_invitro_SARS-CoV-2_Motif_169],-0.283,-0.276,-0.41,-0.539
CAUGUGAUCUGCACCUCUGAAGACAUG,0.111,0.185,0.248,0.33
CAUGUGGUAGUGUUGGUUUUAACAUAGAUUAUGACUGUGUCUCUUUUUGUUACAUGCACCAUAUG,1.54,0.0495,1.48,-0.00779
CAUGUGUUGGUAGCGAUAAUGUUACUGACUUUAAUG,-0.663,-0.614,-0.995,-1.01
CAUGUUUAUCACCCGCGAAGAAGCUAUAAGACAUGUACGUGCAUGGAUUGGCUUCGAUGUCGAGGGGUGUCAUG [DMSMaPseq_invitro_SARS-CoV-2_Motif_326],-0.699,-0.363,-0.771,-0.0649
CAUUACUUUAUGAUG [SHAPE_invitro_SARS-CoV-2_Motif_468],0.168,-0.259,-0.055,-1.02
CAUUUGUAGUUUCAACUGGAUACCACUUCAGAGAGCUAGGUGUUGUACAUAAUCAGGAUGUAAACUUACAUAGCUCUAGACUUAGUUUUAAGGAAUUACUUGUG,-0.927,-0.292,-0.109,0.127
CCAAGACAUGUGAUCUGCACCUCUGAAGACAUGCUUAACCCUAAUUAUGAAGAUUUACUCAUUCGUAAGUCUAAUCAUAAUUUCUUGG [DMSMaPseq_invitro_SARS-CoV-2_Multi_33_ComplexLevel_1],0.403,-0.101,0.332,0.229
CCAAGGAAAUUUUGG,-0.192,-0.382,-0.373,-0.948
CCACAUAGAUCAUCCAAAUCCUAAAGGAUUUUGUGACUUAAAAGG [SHAPE_invivo_SARS-CoV-2_Motif_251],-0.167,-0.357,-0.169,-0.137
CCACAUUUUCACCGAGGCCACGCGGAGUACGAUCGAGUGUACAGUGAACAAUGCUAGG,-0.147,0.563,0.772,1.34
CCACGCACAUUGCUAACUAAGGGCACACUAGAACCAGAAUAUUUCAAUUCAGUGUGUAGACUUAUGAAAACUAUAGGUCCAGACAUGUUCCUCGGAACUUGUCGG,-0.478,-0.0669,-0.189,0.139
CCACGCCAGGUAGUGG,1.16,0.0319,0.912,-0.539
CCACGCUCGUUCCGACACCGGAACGGCACUCGACACCGAGUGCAGCGUGG [3-way model-3_NoName],1.17,1.41,1.51,1.93
CCACUUGGCUAUGUAACACAUGGCUUAAAUUUGG [DMSMaPseq_invitro_SARS-CoV-2_Motif_85],0.386,-0.0708,0.127,-0.575
CCAGAGAAGAAACUGG,0.466,0.0828,0.417,0.486

Sequence,pull-down binding Z-score [1],pull-down binding Z-score [2],pull-down binding Z-score (TO-N3 (biotin conjugate)),pull-down binding Z-score [3]
CCAGUACCAGAGGUGAAAAUACUCAAUAAUUUGGGUGUGGACAUUGCUGCUAAUACUGUG,1.32,0.266,1.18,-0.0208
CCAGUAUCUGAAUUACUUACACCACUGG [SHAPE_invivo_SARS-CoV-2_Motif_58],0.91,0.119,0.688,-0.0924
CCAGUAUCUGAAUUACUUACACCACUGGGCAUUGAUUUAGAUGAGUGGAGUAUGGCUACAUACUACUUAUUUGAUGAGUCUGGUGAGUUUAAAUUGG,-0.742,-0.468,-0.752,-0.946
CCAGUAUGGUGG [IAV_invivo_PB1_2_Motif_36+IAV_invivo_PB1_2_Motif_36],-0.26,-0.471,-0.423,-0.372
CCAUAAUGAAUCUGG [DMSMaPseq_invitro_SARS-CoV-2_Motif_27],-0.322,-0.198,-0.345,-0.529
CCAUGGCAGAUUCCAACGGUACUAUUACCGUUGAAGAGCUUAAAAAGCUCCUUGAACAAUGGAACCUAGUAAUAGGUUUCCUAUUCCUUACAUGG [DMSMaPseq_invitro_SARS-CoV-2_Multi_81_ComplexLevel_1],-0.195,-0.516,-0.621,-0.419
CCAUGGGACAGGAACAGGAUACACCAUGG [IAV_invivo_PB1_2_Motif_4+IAV_invivo_PB1_2_Motif_4],-0.411,0.154,-0.056,0.927
CCAUUCUUCGUAAGGGUGG [DMSMaPseq_invitro_SARS-CoV-2_Motif_28],0.0314,-0.245,-0.198,-0.66
CCAUUUCAUCUUUUAAAUGG,-0.598,-0.38,-0.985,-0.946
CCAUUUGCUAUGCAAAUGG,-0.562,-0.677,-1.05,-1.56
CCCAAGUCAUGAAGGAGAGGG [IAV_invivo_PA_3_Motif_13+IAV_invivo_PA_3_Motif_13],0.689,0.497,0.816,0.652
CCCAAUCAUGAAGGG [IAV_invivo_PB1_2_Motif_24+IAV_invivo_PB1_2_Motif_24],-0.131,-0.407,-0.488,-0.373
CCCAAUCGUGGCGUGUCGGCCUGCUUCGGCAGGCACUGGCGCCG [Pepper530],0.37,0.0777,0.516,1.13
CCCAAUGUUGUUAAACCACACGAAAAGGG [IAV_invivo_PA_3_Motif_15+IAV_invivo_PA_3_Motif_15],0.621,0.104,0.504,-0.323
CCCAGAUGAAGGCACAGCUGGAGUGGAGUCCGCUGUUCUGAGGGGAUUCCUCAUUCUGGG [IAV_invivo_PB2_1_Motif_33+IAV_invivo_PB2_1_Motif_33],-0.0325,0.166,0.671,1.54
CCCAGUGCGGGG [IAV_invivo_NP_5_Motif_5+IAV_invivo_NP_5_Motif_5],-0.794,-0.664,-1.12,-0.984
CCCAUCCGUGGGUGGG [IAV_invivo_NA_6_Motif_4+IAV_invivo_NA_6_Motif_4],-0.525,-0.239,-0.897,-0.95
CCCAUUGGAGAGUCCCCCAAAGGAGUGGAGGAAAGUUCCAUUGGG [IAV_invivo_PA_3_Motif_26+IAV_invivo_PA_3_Motif_26],-0.0565,-0.0971,-0.0467,0.298
CCCCAAAAGAAAUUAUCUUCUUAGAGGG,-0.165,-0.623,0.286,0.109
CCCCACUACAAUUGGGG [IAV_invivo_HA_4_Motif_4+IAV_invivo_HA_4_Motif_4],0.245,-0.517,-0.0989,-1.27
CCCCAGGGAUGCAAAUAAGGGG [IAV_invivo_PB1_2_Motif_14+IAV_invivo_PB1_2_Motif_14],0.0403,0.163,-0.0747,0.241
CCCCGGCCCCGGCCCCGGCCCCGG [r(CCCCGG)4],0.661,0.272,0.747,1.48
